The values below are quoted from earlier work in article PMC10855774, “Role of Spexin in White Adipose Tissue Thermogenesis under Basal and Cold-Stimulated Conditions” (International Journal of Molecular Sciences, 2024).

One data set has as its system preadipocytes. The settings on record: cited from earlier work. The text has this:
(§1) Beige adipocytes may be generated through two different mechanisms: adipogenesis, de novo, from precursor stem cells, and the transdifferentiation process, which involves the conversion/reprogramming of white adipocytes. Regarding the former, different studies have shown the presence of different adipocyte precursors that have different thermogenic capacities when differentiated in vitro [22]. Other studies have observed that PDGFRα+ cells are bipotential precursors, being able to differentiate into either white or beige adipocytes depending on the stimulus. Then, only PDGFRα+ and EBF2+ cell ...

The test system of another data set is 3T3-L1 adipocytes. The settings on record: in vitro; cited from earlier work.
From the text: as §1

A further data set concerns β3-adrenergic receptors. The settings on record: obese female mice treated with SPX for 50 days; cited from earlier work. The text has this:
(§2) Little is known about the role of SPX in thermogenesis. […] In the liver, results are contradictory. While one study has shown that SPX decreases pgc1α expression both in vivo and in vitro [26], another study has shown the opposite effect. Thus, the aim of this study was to evaluate the role of SPX during WAT thermogenesis under both room temperature (RT) and cold-stimul ...

In a further data set the test system is ucp1, pgc1α, and prdm16. The settings on record: obese female mice treated with SPX for 50 days; cited from earlier work.
From the text: as §2

B1: Spexin (peptide, UniProt Q9BT56 27-116, looked up)
Spexin: APQRLLERRNWTPQAMLYLKGAQGRRFISDQSRRKDLSDRPLPERRSPNPQLLTIPEAATILLASLQKSPEDEEKNFDQTRFLEDSLLNW
modifications: Spexin
notes: novel adipokine, a peptide of 14 amino acids of the galanin family; purchased from Tocris
As to B1, the “viability or proliferation of preadipocytes” value in the data set with preadipocytes is listed as “does not affect”. For the same molecule, the “terminal differentiation of white 3T3-L1 adipocytes” value in the data set with 3T3-L1 adipocytes is “inhibits”. In addition, the “immunodetection of β3-adrenergic receptors in gonadal WAT” value in the data set with β3-adrenergic receptors is “lower immunodetection”. The “ucp1, pgc1α, and prdm16 expressions in BAT” value in the data set on ucp1, pgc1α, and prdm16 is recorded as “decreased”.
